Values belong to the molecule of their own block, whether it stands above or below them.
What was measured:
C3b_(R161W) (human) [1] = target: C3b_(R161W) (human) (UniProt P01024)
C3b_(R592W) (human) [2] = target: C3b_(R592W) (human) (UniProt P01024)
C3b_(R161W) (human) [3] = target: C3b_(R161W) (human) (UniProt P01024); assay: SPR; Biacore T100, CM5 chip; C3b surface brought to 1500 RU by thioester deposition (FB and FD with Mg2+ to form convertase, then mutant or wt C3 as substrate); sMCP 0.078-5 μM flowed 90 s, 300 s dissociation; 25 °C, 20 μl/min, HBS-EP; steady-state affinity analysis
C3b_(R592W) (human) [4] = target: C3b_(R592W) (human) (UniProt P01024); assay: as above
wild-type C3b (human) [5] = target: wild-type C3b (human) (UniProt P01024); assay: as above
C3b_(I1157T) [6] = target: C3b_(I1157T) (human, UniProt P01024 749-1663; P01024 749-1663, I1157T); assay: as above; details: both partners purified
C3b_(I1157T) (human, UniProt P01024 749-1663; P01024 749-1663, I1157T), sequence (P01024 749-1663, stated change not applied, chain 1 of 2): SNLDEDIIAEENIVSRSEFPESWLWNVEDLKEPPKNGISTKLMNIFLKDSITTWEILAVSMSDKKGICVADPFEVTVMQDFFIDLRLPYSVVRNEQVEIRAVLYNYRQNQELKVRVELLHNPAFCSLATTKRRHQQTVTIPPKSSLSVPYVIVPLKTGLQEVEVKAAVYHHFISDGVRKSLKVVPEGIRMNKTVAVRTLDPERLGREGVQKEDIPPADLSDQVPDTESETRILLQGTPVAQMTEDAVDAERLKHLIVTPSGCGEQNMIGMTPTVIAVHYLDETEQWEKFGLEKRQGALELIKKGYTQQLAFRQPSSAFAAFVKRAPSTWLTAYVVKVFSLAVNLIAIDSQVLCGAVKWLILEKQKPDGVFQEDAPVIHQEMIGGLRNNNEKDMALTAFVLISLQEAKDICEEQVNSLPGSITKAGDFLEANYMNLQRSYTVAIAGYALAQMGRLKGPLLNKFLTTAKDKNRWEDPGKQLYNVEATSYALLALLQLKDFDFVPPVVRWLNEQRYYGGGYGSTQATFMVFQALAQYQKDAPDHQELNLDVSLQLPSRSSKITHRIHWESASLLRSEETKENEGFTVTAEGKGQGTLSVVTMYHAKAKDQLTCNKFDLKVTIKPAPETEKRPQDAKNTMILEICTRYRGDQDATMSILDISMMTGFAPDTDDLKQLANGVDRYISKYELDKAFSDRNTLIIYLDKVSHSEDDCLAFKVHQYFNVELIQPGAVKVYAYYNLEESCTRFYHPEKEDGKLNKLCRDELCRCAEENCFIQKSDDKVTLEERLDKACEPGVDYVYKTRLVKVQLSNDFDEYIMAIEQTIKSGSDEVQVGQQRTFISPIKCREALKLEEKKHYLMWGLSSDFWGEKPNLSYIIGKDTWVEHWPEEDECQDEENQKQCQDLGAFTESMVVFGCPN
C3b_(I1157T) (human, UniProt P01024 749-1663; P01024 749-1663, I1157T), sequence (P01024 749-1663 I1157T, chain 2 of 2): as the sequence (P01024 749-1663, stated change not applied, chain 1 of 2) above, with I409T counted along it

C3b_(I1157T) [7] = target: C3b_(I1157T) (human, UniProt P01024 749-1663; P01024 749-1663, I1157T, C3b state: beta and alpha' chains disulfide-linked. Thioester (Cys1010-Gln1013) opened: hydrolysed in trypsin-generated C3b, or covalently attached to the chip via thioester for MCP SPR. Plasma glycop); assay: SPR; Biacore T100, CM5 chip; C3b immobilised (400 RU, amine coupling); FH 0.07-4.18 μM flowed 180 s, 300 s dissociation; 25 °C, 20 μl/min, HBS-EP; steady-state affinity analysis; details: both partners purified
C3b_(I1157T) (human, UniProt P01024 749-1663; P01024 749-1663, I1157T, C3b state: beta and alpha' chains disulfide-linked. Thioester (Cys1010-Gln1013) opened: hydrolysed in trypsin-generated C3b, or covalently attached to the chip via thioester for MCP SPR. Plasma glycop), sequence (P01024 749-1663, stated change not applied, chain 1 of 2): as the sequence (P01024 749-1663, stated change not applied, chain 1 of 2) above
C3b_(I1157T) (human, UniProt P01024 749-1663; P01024 749-1663, I1157T, C3b state: beta and alpha' chains disulfide-linked. Thioester (Cys1010-Gln1013) opened: hydrolysed in trypsin-generated C3b, or covalently attached to the chip via thioester for MCP SPR. Plasma glycop), sequence (P01024 749-1663 I1157T, chain 2 of 2): as the sequence (P01024 749-1663, stated change not applied, chain 1 of 2) above, with I409T counted along it

C3b_(R161W) (human) [8] = target: C3b_(R161W) (human) (UniProt P01024); assay: as above
C3b_(R592W) (human) [9] = target: C3b_(R592W) (human) (UniProt P01024); assay: as above
wild-type C3b (human) [10] = target: wild-type C3b (human) (UniProt P01024); assay: as above

FI-mediated cleavage of C3b with sMCP as cofactor, purified proteins in solution, 0-10 min at 37 °C; percent of C3b cleaved after 10 min (wt almost completely cleaved) (C3b_(R161W) (human) [1]): 70% | FI-mediated cleavage of C3b with sMCP as cofactor, purified proteins in solution, 0-10 min at 37 °C; percent of C3b cleaved after 10 min (wt almost completely cleaved) (C3b_(R592W) (human) [2]): 70% | Kd (C3b_(R161W) (human) [3]): 930 nM | Kd (C3b_(R592W) (human) [4]): 710 nM | Kd (wild-type C3b (human) [5]): 570 nM
Molecule: soluble recombinant membrane cofactor protein (sMCP) (from UniProt P15529 35-286) (domain or fragment)

Kd (C3b_(I1157T) [6]): 940 nM
B1: soluble recombinant membrane cofactor protein (sMCP) (domain or fragment)
chain: CEEPPTFEAMELIGKPKPYYEIGERVDYKCKKGYFYIPPLATHTICDRNHTWLPVSDDACYRETCPYIRDPLNGQAVPANGTYEFGYQMHFICNEGYYLIGEEILYCELKGSVAIWSGKPPICEKVLCTPPPKIKNGKHTFSEVEVFEYLDAVTYSCDPAPGPDPFSLIGESTIYCGDNSVWSRAAPECKVVKCRFPVVENGKQISGFGKKFYYKATVMFECDKGFYLDGSDTIVCDSNSTWDPPVPKCLKV
notes: membrane cofactor protein (MCP, CD46), the first four short consensus repeats (SCR1-4); also called CD46; recombinant soluble MCP; source: recombinant; gift from Prof; Susan Lea, Oxford University

Kd (C3b_(I1157T) [7]): 1420 nM | Kd (C3b_(R161W) (human) [8]): 2390 nM | Kd (C3b_(R592W) (human) [9]): 2450 nM | Kd (wild-type C3b (human) [10]): 960 nM
B2: factor H (natural protein, human, UniProt P08603 19-1231, looked up)
chain: EDCNELPPRRNTEILTGSWSDQTYPEGTQAIYKCRPGYRSLGNVIMVCRKGEWVALNPLRKCQKRPCGHPGDTPFGTFTLTGGNVFEYGVKAVYTCNEGYQLLGEINYRECDTDGWTNDIPICEVVKCLPVTAPENGKIVSSAMEPDREYHFGQAVRFVCNSGYKIEGDEEMHCSDDGFWSKEKPKCVEISCKSPDVINGSPISQKIIYKENERFQYKCNMGYEYSERGDAVCTESGWRPLPSCEEKSCDNPYIPNGDYSPLRIKHRTGDEITYQCRNGFYPATRGNTAKCTSTGWIPAPRCTLKPCDYPDIKHGGLYHENMRRPYFPVAVGKYYSYYCDEHFETPSGSYWDHIHCTQDGWSPAVPCLRKCYFPYLENGYNQNYGRKFVQGKSIDVACHPGYALPKAQTTVTCMENGWSPTPRCIRVKTCSKSSIDIENGFISESQYTYALKEKAKYQCKLGYVTADGETSGSITCGKDGWSAQPTCIKSCDIPVFMNARTKNDFTWFKLNDTLDYECHDGYESNTGSTTGSIVCGYNGWSDLPICYERECELPKIDVHLVPDRKKDQYKVGEVLKFSCKPGFTIVGPNSVQCYHFGLSPDLPICKEQVQSCGPPPELLNGNVKEKTKEEYGHSEVVEYYCNPRFLMKGPNKIQCVDGEWTTLPVCIVEESTCGDIPELEHGWAQLSSPPYYYGDSVEFNCSESFTMIGHRSITCIHGVWTQLPQCVAIDKLKKCKSSNLIILEEHLKNKKEFDHNSNIRYRCRGKEGWIHTVCINGRWDPEVNCSMAQIQLCPPPPQIPNSHNMTTTLNYRDGEKVSVLCQENYLIQEGEEITCKDGRWQSIPLCVEKIPCSQPPQIEHGTINSSRSSQESYAHGTKLSYTCEGGFRISEENETTCYMGKWSSPPQCEGLPCKSPPEISHGVVAHMSDSYQYGEEVTYKCFEGFGIDGPAIAKCLGEKWSHPPSCIKTDCLSLPSFENAIPMGEKKDVYKAGEQVTYTCATYYKMDGASNVTCINSRWTGRPTCRDTSCVNPPTVQNAYIVSRQMSKYPSGERVRYQCRSPYEMFGDEEVMCLNGNWTEPPQCKDSTGKCGPPPPIDNGDITSFPLSVYAPASSVEYQCQNLYQLEGNKRITCRNGQWSEPPKCLHPCVISREIMENYNIALRWTAKQKLYSRTGESVEFVCKRGYRLSSRSHTLRTTCWDGKLEYPTCAKR
notes: complement factor H, human, from plasma; also called FH; CFH

Source: PMC4503813, “The molecular and structural bases for the association of complement C3 mutations with atypical hemolytic uremic syndrome” (Molecular Immunology, 2015)
